Molecular target: human endogenous fatty acid synthase (FASN) (human) (UniProt P49327)
Assay: cryo-EM structure; purified endogenous FASN at 0.5-1.0 mg/ml in TBS buffer, alone or incubated 30 min with 1 mM orlistat or 3 mM 1,3-DBP; C2 symmetry applied; condensing and modifying wings refined separately

stoichiometry N: 2
Substance: human endogenous fatty acid synthase (FASN), P49327 1-2511
